Measurements published in US12534533B2, “Anti-chemokine like receptor 1 humanized antibodies and their therapeutic applications” (OSE IMMUNOTHERAPEUTICS, priority 2019, dated 2026).

Columns and labels:
[1] = test system: CCR7 expression at the surface of pro-inflammatory macrophages M1; test: CCR7 expression on M1 macrophages with coated antibodies; type: cell-based, human; conditions: antibody coated on plate, 48 h, flow cytometry; vs isotype control; FIG. 25, FIG. 35
Experimental: FIG. 25. Inhibition of CCR7 expression on M1 macrophages cells in vitro with anti-ChemR23 antibodies coated. 2G1 and all humanized 2G1 variants (HALA, HCLC, HCLD, HDLC and HDLD) were immobilized on plate. Isotype control were added as controls. Two isotypes which prevent FcRγ binding, i.e., 2G1-N297A (2G1 wt mutated in N297A to reduce FcγR binding), and 2G4 (wt with isotype IgG4mutated in S228P to stabilise hinge region) were also added. Pro-inflammatory macrophages M1 were added on coated plate for 48 h, and CCR7 expression at the surface of the macrophages was measured by flow cytometry.
FIG. 35—Inhibition of CCR7 expression on M1 macrophages cells in vitro with anti-ChemR23 antibody coated. The humanized 2G1 variant HEF-LD-T52S was immobilized on plate. Isotype control were added as controls. Pro-inflammatory macrophages M1 were added on coated plate, and CCR7 expression at the surface of the macrophages was measured by flow cytometry.
MATERIAL AND METHODS. […]
RESULTS. […] Pro-inflammatory macrophages M1 were added on coated plate for 48 h, and CCR7 expression at the surface of the macrophages was measured by flow cytometry.
The humanized 2G1 variant HEF-LD-T52S was immobilized on plate. […] Pro-inflammatory macrophages M1 were added on coated plate for 48 h, and CCR7 expression at the surface of the macrophages was measured by flow cytometry. […]

MC38 cells = test: MC38 colon carcinoma model; type: in vivo, mice; conditions: 20 μg/injection i.p. for 3 weeks; vs isotype control; FIG. 9D
Experimental: FIG. 9. Effect of an anti-CMKLR1 antibody on 2 different colon carcinoma mice models. Two mice models were studied, and animals received isotype control antibody (3G8) (x) or anti-CMKLR1 (2G1) (□) at 20 μg/injection intraperitoneally for 3 weeks. A-C. Results in the CT26 colon carcinoma model comparing single treatment with p84 (A) and 2G1 (B) with combined therapy with both antibodies (C). D: Results in the MC38 colon carcinoma model.
8-week old C57bl/6J male mice were anesthetized with 3% of isoflurane. Mice were shaved on the flank and MC38 cells (0.5·10≢cells/mouse) cell lines were injected subcutaneously with an insulinic syringe (30 Gauges) in 50 μL of PBS. Another model was used, in which 8-week old Balb/c male mice were anesthetized with 3% of isoflurane. Mice were shaved on the flank and CT26 cells (1.10≢cells/mouse) were injected subcutaneously with an insulinic syringe (30 Gauges) in 50 μL of PBS.
The agonistic anti-CMKLR1 antibody (2G1) or an anti-SIRPa antibody (p84-anti-mouse SIRPa from Merck Millipore) (SIRPa is a new checkpoint inhibitor) were injected once a week (20 μg/injection) intraperitoneally for 3 weeks starting at d4 after tumor inoculation alone or combined.

B1: 2G1: parental chimeric anti-CMKLR1 antibody: heavy chain variable domain SEQ ID No. 37, light chain variable domain SEQ ID No. 49 (antibody, V domains shown)
VH: EVQLVASGGGLVQPGGSLKLSCAASGFTFSSYGMSWVRQTPDRRLELVATINRYGGSTYYPDSVKGRFTISRDNAKNTLYLQMSSLKSEDTAMYYCPRLIYYGNEGDSWGQGTTLTVSS
VL: QIVLTQSPAIMSASPGEKVTMTCSASSSVSFMHWYQQKSGTSPKRWIYDTTKLTSGVPARFSGSGSGTFYSLTISSMEAEDAATYYCQQWNSKPPLTFGPGTKLELKR
[1]
  expression of CCR7 at the surface of pro-inflammatory macrophages (M1): able to decrease expression of CCR7
MC38 cells
  tumor growth: did show an efficacy in the inhibition of the tumor growth
